Experimental data as given in article PMC9067507, “F/YGG-motif is an intrinsically disordered nucleic-acid binding motif”.

Key:
Experiment in all cases: MST; 10 mM MgCl2; MST: 20 mM HEPES pH 7.5, 10 mM MgCl2, 0.05% Tween-20; 420 nM labelled U30 with protein titrated, or labelled peptide with RNA titrated; temperature not stated
[1] = biological target: T1, hnRNPA2 LCD deltaNAID2 (human, UniProt P22626 200-306, del307-353); conditions: protein: recombinant; (stated for LCD only)
T1 sequence: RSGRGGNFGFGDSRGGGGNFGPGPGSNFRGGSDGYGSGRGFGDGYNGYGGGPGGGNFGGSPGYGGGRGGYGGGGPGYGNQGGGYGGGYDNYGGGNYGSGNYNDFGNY

[2] = biological target: T2, hnRNPA2 LCD deltaNAID1 (human, UniProt P22626 200-353, del239-306); conditions: protein: recombinant; (stated for LCD only)
T2 sequence: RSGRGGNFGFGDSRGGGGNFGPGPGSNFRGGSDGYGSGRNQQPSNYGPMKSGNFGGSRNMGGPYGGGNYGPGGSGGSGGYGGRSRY

[3] = biological target: hnRNPA2 LCD (human, UniProt P22626 200-353); conditions: protein: recombinant; tags: 6xHis removed by TEV
Sequence of hnRNPA2 LCD (P22626 200-353): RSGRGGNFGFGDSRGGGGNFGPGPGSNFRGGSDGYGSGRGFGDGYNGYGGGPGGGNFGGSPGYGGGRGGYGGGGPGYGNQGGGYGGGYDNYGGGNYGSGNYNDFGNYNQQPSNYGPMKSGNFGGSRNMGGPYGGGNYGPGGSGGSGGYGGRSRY

In the case of UUUUUUUUUUUUUUUUUUUUUUUUUUUUUU (ssRNA) [U30 (labelled)], the Kd [1] is reported as 13 ± 3 µM, the Kd [2] is reported as 41 ± 1.4 µM and the Kd [3] is reported as 0.72 ± 0.002 µM.
